Source: US20230365648A1 (BITTERROOT BIO, published 2023)

Legend:
Assay in all cases: BLI (Octet R8), construct captured on anti-human Fc sensor, CD47 in solution
mouse CD47 = biological target: T1, mouse CD47 (mouse, UniProt Q61735 19-140, limits assumed)
T1 construct: also called mouse CD47 protein
T1 sequence (looked up): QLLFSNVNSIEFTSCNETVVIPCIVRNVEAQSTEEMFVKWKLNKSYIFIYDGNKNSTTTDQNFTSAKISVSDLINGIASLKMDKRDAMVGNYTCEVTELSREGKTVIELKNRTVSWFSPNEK

rhCD47-his (human CD47) = biological target: T2, rhCD47-his (human CD47) (human, UniProt Q08722 19-139)
T2 construct: Soluble analyte in the Octet assay; not shown: his tag

rat CD47 = biological target: T3, rat CD47 (rat, UniProt P97829 19-140, limits assumed)
T3 construct: also called rat CD47 protein
T3 sequence (looked up): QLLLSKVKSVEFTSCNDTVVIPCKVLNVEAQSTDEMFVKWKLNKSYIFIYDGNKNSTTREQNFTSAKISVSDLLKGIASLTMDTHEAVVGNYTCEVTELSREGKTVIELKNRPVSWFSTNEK

Measured: binding result

T2 sequence (Q08722 19-139 limits assumed): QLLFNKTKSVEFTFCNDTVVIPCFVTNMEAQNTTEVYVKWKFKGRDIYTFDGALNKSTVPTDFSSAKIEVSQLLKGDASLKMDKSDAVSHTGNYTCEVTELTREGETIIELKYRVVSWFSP

B1: Construct 50 (SIRPα fusion polypeptide SEQ ID NO: 10 construct without the YTE mutation, i.e. with the wild type IgG4 Fc domain) (Fc fusion)
chain: EEELQIIQPDKSVLVAAGETATLRCTITSLFPVGPIQWFRGAGPGRVLIYNQRQGPFPRVTTVSDTTKRNNMDFSIRIGNITPADAGTYYCIKFRKGSPDDVEFKSGAGTELSVRAKPSAAAPPCPPCPAPEFLGGPSVFLFPPKPKDTLMISRTPEVTCVVVDVSQEDPEVQFNWYVDGVEVHNAKTKPREEQFNSTYRVVSVLTVLHQDWLNGKEYKCKVSNKGLPSSIEKTISKAKGQPREPQVYTLPPSQEEMTKNQVSLTCLVKGFYPSDIAVEWESNGQPENNYKTTPPVLDSDGSFFLYSRLTVDKSRWQEGNVFSCSVMHEALHNHYTQKSLSLSLGK
notes: It is described as the same construct as Construct 67 without the YTE mutation
binds: all assays above

B2: Construct 67 (SIRPα fusion polypeptide of SEQ ID NO: 10, SIRPα domain of SEQ ID NO: 2 and IgG4 Fc domain with a YTE mutation) (Fc fusion)
chain: EEELQIIQPDKSVLVAAGETATLRCTITSLFPVGPIQWFRGAGPGRVLIYNQRQGPFPRVTTVSDTTKRNNMDFSIRIGNITPADAGTYYCIKFRKGSPDDVEFKSGAGTELSVRAKPSAAAPPCPPCPAPEFLGGPSVFLFPPKPKDTLYITREPEVTCVVVDVSQEDPEVQFNWYVDGVEVHNAKTKPREEQFNSTYRVVSVLTVLHQDWLNGKEYKCKVSNKGLPSSIEKTISKAKGQPREPQVYTLPPSQEEMTKNQVSLTCLVKGFYPSDIAVEWESNGQPENNYKTTPPVLDSDGSFFLYSRLTVDKSRWQEGNVFSCSVMHEALHNHYTQKSLSLSLGK
binds: all assays above
